From patent US11485776B2, “Antibodies against infectious diseases” (priority 2015, dated 2022)
Entries after “also recorded” stand apart in the source; their conditions may differ.

Columns and labels:
[1] = biological target: T1, alpha-enolase on the surface of C. albicans (Candida albicans, UniProt P30575); test: Immunofluorescence staining of C. albicans; assay type: cell-based
T1 construct: endogenous in cells; host or cells: C. albicans SC 5314 and clinical isolates CA6-17, CA7-26, CA7-3, CA10-50, CA7-30, CA10-65
Excerpt: Anti-CaENO1 antibodies were used to detect alpha-enolase protein on C. albicans cell surface ENO1. (1) Detected with anti-CaENO1 IgY and developed by FITC conjugation rabbit anti-chicken antibodies. (2) Detected with scFv CaS1 and developed by goat anti-chicken light chain antibodies and FITC rabbit anti-goat antibodies. (3) An irrelevant scFv was used on negative control.
Anti-CaENO1 IgY, scFv CaS1 and control scFv were used in immunofluorescence assay for identification of CaS1 antibody to alpha-enolase on cell surface of C. albicans.

C. albicans [2] = test: Mouse model of C. albicans infection (survival); assay type: in vivo, ICR mice; details: for survival rate: ICR mice; for Protection against lethal challenge of C. albicans in mice: mouse, in vivo
Method: The mice were grouped and challenged with the mixture of 10^6 of C. albicans containing 10 ug and 100 ug CaS1 scFv, 100 ug anti-DA scFv (unrelated scFv control) or 1×PBS, respectively. The survival of mice was monitored at 1 day intervals for 10 days.
A total of 20 ICR female mice (purchased from National Laboratory Animal Center, Taiwan) weighing about 30 g were randomly grouped with 5 mice in each group. C. albicans were grown overnight and washed in normal saline. Four groups of mice were treated through the lateral tail vein with the following preparations: (i) 1×PBS alone; (ii) 1×10^6 cfu of C. albicans cells pre-incubated with 50 μg of CaS1; (iii) 1×10^6 cfu of C. albicans cells pre-incubated with 100 μg of CaS1; (iv) 1×10^6 cfu of C. albicans cells pre-incubated with anti-CaENO1 IgY. Mice were monitored for survival at 1 day intervals for 10 days. All treatments and handling of mice were carried out according to animal experimental protocols approved by the Institutional Animal Care and Use Committee of Taipei Medical University.
1×10^6 cells of C. albicans solutions were mixed with 100 μg of each of the anti-CaENO1 IgY, scFv CaS1 and control scFv and then injected into ICR mice (5 mice for each group).
We evaluated the survival rate of the CaS1 on animal model. Initially ICR mice were tail-vein injected with 1×10^6 cells of C. albicans with PBS alone or cells pre-incubated with CaS1 (10 and 100 μg) for one hour at 37° C. […] Anti-Deinagkistrodon acutus scFv (anti-DA) is an antibody to snake venom, which was used as an unrelated scFv control.

C. albicans [3] = test: C. albicans growth on YPD agar plate; assay type: cell-based; details: 0.5 mg/ml antibody pre-incubated 1 hr, 10x dilutions spotted
Method: (A) C. albicans were cultured in YPD medium overnight at 37° C. 10^8 cfu/ml of C. albicans was mixed with equal volume of 0.5 mg/ml anti-CaENO1 IgY, 0.5 mg/ml CaS1 scFv or 1×PBS, respectively, at room temperature for 1 hr. 1 ul of each mixture in 10× dilutions was spotted on YPD agar plate and incubated at 37° C. overnight. (B) 10^3 cfu of C. albicans was mixed with PBS (control), 10 or 100 µg/ml CaS1 scFv at room temperature for 1 hr. 1 ul of each mixture was spotted on YPD agar plate and incubated at 37° C. for 5 days. The hyphal formation was observed under the microscope.
To determine the effect of scFv antibodies on the cell growth and hyphal formation, anti-CaENO1 IgY (0.5 mg/ml) or CaS1 scFv (0.5 mg/ml) or PBS were pre-incubated with C. albicans (1×10^6 cfu) for 1 hr at 37° C. After incubation, 1 ul of each mixture in 10-fold dilutions was spotted on YPD agar plate and incubated at 37° C. overnight. 10^3 cfu of C. albicans was mixed with 0 (1×PBS control), 10 or 100 µg/ml CaS1 scFv at room temperature for 1 hr. Thereafter, 1 ul of each mixture was spotted on YPD agar plate and incubated at 37° C. for 5 days. […].
We evaluated the influence of CaS1 on growth of C. albicans, we pre-incubated CaS1 scFv with C. albicans and plated on the agar.

T1 sequence (P30575 whole entry): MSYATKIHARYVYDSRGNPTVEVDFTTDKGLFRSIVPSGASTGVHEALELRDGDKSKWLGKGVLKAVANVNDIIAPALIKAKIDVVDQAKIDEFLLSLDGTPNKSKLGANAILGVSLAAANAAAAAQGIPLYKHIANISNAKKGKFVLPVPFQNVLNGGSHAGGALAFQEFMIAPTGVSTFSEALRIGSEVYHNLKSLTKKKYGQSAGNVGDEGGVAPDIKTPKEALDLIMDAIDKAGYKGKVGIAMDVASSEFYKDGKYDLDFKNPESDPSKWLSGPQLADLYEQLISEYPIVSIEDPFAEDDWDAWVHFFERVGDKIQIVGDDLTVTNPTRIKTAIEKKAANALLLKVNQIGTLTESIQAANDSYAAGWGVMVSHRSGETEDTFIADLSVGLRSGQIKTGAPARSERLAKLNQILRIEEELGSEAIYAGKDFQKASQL

B1: CaS1 scFv: anti-CaENO1 scFv monoclonal antibody from chicken phage library; light chain SEQ ID NO:11, heavy chain SEQ ID NO:12 (antibody, V domains shown)
VH: TVTLDESGGGLQTPRGALSLVCKASGFTFIDYGMQWVRQAPGKGLEWVAGIGSSGSSTNYGAAVKGRATISRDDGQSTVRLQLNNLRAEDTGTYYCAKSAGGYCVNGAGCNGGSIDAWGHGTEVIVSS
VL: ALTQPSSVSANLGGTVKITCSGGSGSYGWYQQKSPGSAPVTVIYSNNQRPSNIPSRFSGSPSGSTGTLTITGVQADDEAVYFCGSRDSSYVGVFGAGTTLTVL
modifications: scFv linker; amino acid sequence comprised in a heavy chain of an anti-CaENO1 scFv monoclonal antibody (CaS1); amino acid sequence comprised in a light chain of an anti-CaENO1 scFv monoclonal antibody (CaS1)
Q: How did the “Binding to alpha-enolase on the surface of C. albicans (immunofluorescence)” value [1] turn out when B1 was run?
A: bind

Q: What about the survival rate (C. albicans [2]; 10 μg pre-incubated with 1×10^6 cells of C. albicans, tail-vein) of the same molecule?
A: 40%

Q: And the survival rate (C. albicans [2]; 100 μg mixed with 1×10^6 cells of C. albicans, 10 days)?
A: 80%

Q: What about the “Protection against lethal challenge of C. albicans in mice” value (C. albicans [2]) of the same molecule?
A: partial protect activity; also recorded: significant protective activity

Q: What about the “Protection against lethal challenge of C. albicans in mice” value (C. albicans [2]; listed as CaS1 antibody) of the same molecule?
A: prolonged the survival time

Q: And the “C. albicans growth on YPD agar plate” value (C. albicans [3])?
A: decreased C. albicans growth

Q: What about the “C. albicans growth on YPD agar plate” value (C. albicans [3]; listed as CaS1) of the same molecule?
A: attenuated the growth
